Consider five molecules from patent publication US7838231 (REGENTS OF THE UNIVERSITY OF MICHIGAN, dated 2010).

To fix the notation:
T1: full-length human nephrocystin-5 (NPHP5), yeast two-hybrid fusion (human, UniProt Q15051 1-598)
T1 construct: Full-length NPHP5 cDNA (598 amino acid residues) fused to a GAL4 domain; also called KIAA0036
T1 sequence: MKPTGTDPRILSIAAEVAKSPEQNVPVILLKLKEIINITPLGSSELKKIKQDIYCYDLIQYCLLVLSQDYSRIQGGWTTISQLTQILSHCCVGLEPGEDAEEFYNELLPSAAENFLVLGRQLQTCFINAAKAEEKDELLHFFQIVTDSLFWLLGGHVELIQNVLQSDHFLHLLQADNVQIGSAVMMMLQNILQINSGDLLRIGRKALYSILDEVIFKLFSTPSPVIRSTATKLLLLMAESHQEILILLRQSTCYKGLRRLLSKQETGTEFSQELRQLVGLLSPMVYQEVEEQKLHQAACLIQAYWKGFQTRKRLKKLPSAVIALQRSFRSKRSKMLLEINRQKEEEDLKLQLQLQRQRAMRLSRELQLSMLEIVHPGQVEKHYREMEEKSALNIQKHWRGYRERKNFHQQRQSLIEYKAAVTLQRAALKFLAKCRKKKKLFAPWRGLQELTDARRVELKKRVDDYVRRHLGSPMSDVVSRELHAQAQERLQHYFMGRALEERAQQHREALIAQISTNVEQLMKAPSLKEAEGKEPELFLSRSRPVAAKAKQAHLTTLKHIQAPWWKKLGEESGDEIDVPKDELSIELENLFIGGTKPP

B1: BBS4, human full length, yeast two-hybrid prey (other, UniProt Q96RK4 1-519, looked up, not shown: large carriers)
chain: MAEERVATRTQFPVSTESQKPRQKKAPEFPILEKQNWLIHLHYIRKDYEACKAVIKEQLQETQGLCEYAIYVQALIFRLEGNIQESLELFQTCAVLSPQSADNLKQVARSLFLLGKHKAAIEVYNEAAKLNQKDWEISHNLGVCYIYLKQFNKAQDQLHNALNLNRHDLTYIMLGKIHLLEGDLDKAIEVYKKAVEFSPENTELLTTLGLLYLQLGIYQKAFEHLGNALTYDPTNYKAILAAGSMMQTHGDFDVALTKYRVVACAVPESPPLWNNIGMCFFGKKKYVAAISCLKRANYLAPFDWKILYNLGLVHLTMQQYASAFHFLSAAINFQPKMGELYMLLAVALTNLEDIENAKRAYAEAVHLDKCNPLVNLNYAVLLYNQGEKKNALAQYQEMEKKVSLLKDNSSLEFDSEMVEMAQKLGAALQVGEALVWTKPVKDPKSKHQTTSTSKPASFQQPLGSNQALGQAMSSAAAYRTLPSGAGGTSQFTKPPSLPLEPEPAVESSPTETSEQIREK
B2: BBS6, human full length, yeast two-hybrid prey (other, UniProt Q9NPJ1 1-570, looked up, not shown: large carriers)
chain: MSRLEAKKPSLCKSEPLTTERVRTTLSVLKRIVTSCYGPSGRLKQLHNGFGGYVCTTSQSSALLSHLLVTHPILKILTASIQNHVSSFSDCGLFTAILCCNLIENVQRLGLTPTTVIRLNKHLLSLCISYLKSETCGCRIPVDFSSTQILLCLVRSILTSKPACMLTRKETEHVSALILRAFLLTIPENAEGHIILGKSLIVPLKGQRVIDSTVLPGILIEMSEVQLMRLLPIKKSTALKVALFCTTLSGDTSDTGEGTVVVSYGVSLENAVLDQLLNLGRQLISDHVDLVLCQKVIHPSLKQFLNMHRIIAIDRIGVTLMEPLTKMTGTQPIGSLGSICPNSYGSVKDVCTAKFGSKHFFHLIPNEATICSLLLCNRNDTAWDELKLTCQTALHVLQLTLKEPWALLGGGCTETHLAAYIRHKTHNDPESILKDDECTQTELQLIAEAFCSALESVVGSLEHDGGEILTDMKYGHLWSVQADSPCVANWPDLLSQCGCGLYNSQEELNWSFLRSTRRPFVPQSCLPHEAVGSASNLTLDCLTAKLSGLQVAVETANLILDLSYVIEDKN
B3: BBS8, human full length, yeast two-hybrid prey (other, UniProt Q8TAM2 1-541, looked up, not shown: large carriers)
chain: MSSEMEPLLLAWSYFRRRKFQLCADLCTQMLEKSPYDQEPDPELPVHQAAWILKARALTEMVYIDEIDVDQEGIAEMMLDENAIAQVPRPGTSLKLPGTNQTGGPSQAVRPITQAGRPITGFLRPSTQSGRPGTMEQAIRTPRTAYTARPITSSSGRFVRLGTASMLTSPDGPFINLSRLNLTKYSQKPKLAKALFEYIFHHENDVKTIHLEDVVLHLGIYPFLLRNKNHIEKNALDLAALSTEHSQYKDWWWKVQIGKCYYRLGMYREAEKQFKSALKQQEMVDTFLYLAKVYVSLDQPVTALNLFKQGLDKFPGEVTLLCGIARIYEEMNNMSSAAEYYKEVLKQDNTHVEAIACIGSNHFYSDQPEIALRFYRRLLQMGIYNGQLFNNLGLCCFYAQQYDMTLTSFERALSLAENEEEAADVWYNLGHVAVGIGDTNLAHQCFRLALVNNNNHAEAYNNLAVLEMRKGHVEQARALLQTASSLAPHMYEPHFNFATISDKIGDLQRSYVAAQKSEAAFPDHVDTQHLIKQLRQHFAML
B4: BBS1, human full length, yeast two-hybrid prey (other, UniProt Q8NFJ9 1-593, looked up, not shown: large carriers)
chain: MAAASSSDSDACGAESNEANSKWLDAHYDPMANIHTFSACLALADLHGDGEYKLVVGDLGPGGQQPRLKVLKGPLVMTESPLPALPAAAATFLMEQHEPRTPALALASGPCVYVYKNLRPYFKFSLPQLPPNPLEQDLWNQAKEDRIDPLTLKEMLESIRETAEEPLSIQSLRFLQLELSEMEAFVNQHKSNSIKRQTVITTMTTLKKNLADEDAVSCLVLGTENKELLVLDPEAFTILAKMSLPSVPVFLEVSGQFDVEFRLAAACRNGNIYILRRDSKHPKYCIELSAQPVGLIRVHKVLVVGSTQDSLHGFTHKGKKLWTVQMPAAILTMNLLEQHSRGLQAVMAGLANGEVRIYRDKALLNVIHTPDAVTSLCFGRYGREDNTLIMTTRGGGLIIKILKRTAVFVEGGSEVGPPPAQAMKLNVPRKTRLYVDQTLREREAGTAMHRAFQTDLYLLRLRAARAYLQALESSLSPLSTTAREPLKLHAVVQGLGPTFKLTLHLQNTSTTRPVLGLLVCFLYNEALYSLPRAFFKVPLLVPGLNYPLETFVESLSNKGISDIIKVLVLREGQSAPLLSAHVNMPGSEGLAAA
B5: BBS5, human full length, yeast two-hybrid prey (other, UniProt Q8N3I7 1-341, looked up, not shown: large carriers)
chain: MSVLDALWEDRDVRFDLSAQQMKTRPGEVLIDCLDSIEDTKGNNGDRGRLLVTNLRILWHSLALSRVNVSVGYNCILNITTRTANSKLRGQTEALYILTKCNSTRFEFIFTNLVPGSPRLFTSVMAVHRAYETSKMYRDFKLRSALIQNKQLRLLPQEHVYDKINGVWNLSSDQGNLGTFFITNVRIVWHANMNDSFNVSIPYLQIRSIKIRDSKFGLALVIESSQQSGGYVLGFKIDPVEKLQESVKEINSLHKVYSASPIFGVDYEMEEKPQPLEALTVEQIQDDVEIDSDGHTDAFVAYFADGNKQQDREPVFSEELGLAIEKLKDGFTLQGLWEVMS

This assay has as its target T1, full-length human nephrocystin-5 …. Put plainly: direct yeast two-hybrid assay.
Take B1: the binding result is “no binding”.

With B2, the binding result is reported as “no binding”.

Turning to B3, the binding result is reported as “no binding”.

Regarding B4, the binding result is “no binding”.

Regarding B5, the binding result is listed as “no binding”.
